Source: article PMC10397247

Columns and labels:
Assay in all cases: two-hybrid library CCNG1;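 further: natural log of median RNA to DNA barcode read ratio; higher means stronger binding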
4H235-bN = target: T1, 4H235-bN
T1 chain: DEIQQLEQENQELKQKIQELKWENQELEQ

4H2931-bN = target: T2, 4H2931-bN
T2 chain: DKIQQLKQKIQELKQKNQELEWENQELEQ

4H2518-bN = target: T3, 4H2518-bN
T3 chain: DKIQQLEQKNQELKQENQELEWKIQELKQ

4H730-bN = target: T4, 4H730-bN
T4 chain: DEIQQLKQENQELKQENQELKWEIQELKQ

4H264-bN = target: T5, 4H264-bN
T5 chain: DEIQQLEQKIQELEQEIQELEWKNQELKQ

4H2143-bN = target: T6, 4H2143-bN
T6 chain: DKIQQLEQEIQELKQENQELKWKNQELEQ

4H949-bN = target: T7, 4H949-bN
T7 chain: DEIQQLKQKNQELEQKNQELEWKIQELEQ

4H56-bN = target: T8, 4H56-bN
T8 chain: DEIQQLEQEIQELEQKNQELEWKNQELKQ

4H3381-bN = target: T9, 4H3381-bN
T9 chain: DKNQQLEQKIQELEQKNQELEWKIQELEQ

4H2760-bN = target: T10, 4H2760-bN
T10 chain: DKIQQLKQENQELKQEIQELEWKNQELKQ

4H2585-bN = target: T11, 4H2585-bN
T11 chain: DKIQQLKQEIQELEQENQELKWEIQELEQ

4H2859-bN = target: T12, 4H2859-bN
T12 chain: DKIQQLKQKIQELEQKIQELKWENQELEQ

4H796-bN = target: T13, 4H796-bN
T13 chain: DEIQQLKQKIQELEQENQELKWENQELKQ

4H3297-bN = target: T14, 4H3297-bN
T14 chain: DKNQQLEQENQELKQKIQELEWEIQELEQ

4H932-bN = target: T15, 4H932-bN
T15 chain: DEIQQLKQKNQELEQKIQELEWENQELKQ

4H3041-bN = target: T16, 4H3041-bN
T16 chain: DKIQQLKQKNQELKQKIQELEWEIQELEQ

4H2444-bN = target: T17, 4H2444-bN
T17 chain: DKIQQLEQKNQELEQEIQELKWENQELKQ

4H2233-bN = target: T18, 4H2233-bN
T18 chain: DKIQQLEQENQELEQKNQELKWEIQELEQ

4H2253-bN = target: T19, 4H2253-bN
T19 chain: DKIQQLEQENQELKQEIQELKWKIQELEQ

4H166-bN = target: T20, 4H166-bN
T20 chain: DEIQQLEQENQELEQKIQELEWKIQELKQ

4H3364-bN = target: T21, 4H3364-bN
T21 chain: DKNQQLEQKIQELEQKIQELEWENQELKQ

4H349-bN = target: T22, 4H349-bN
T22 chain: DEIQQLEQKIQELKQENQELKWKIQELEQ

4H2162-bN = target: T23, 4H2162-bN
T23 chain: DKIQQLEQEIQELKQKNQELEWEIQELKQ

4H953-bN = target: T24, 4H953-bN
T24 chain: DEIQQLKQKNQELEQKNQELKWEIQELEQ

4H918-bN = target: T25, 4H918-bN
T25 chain: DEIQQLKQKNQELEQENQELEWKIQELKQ

4H607-bN = target: T26, 4H607-bN
T26 chain: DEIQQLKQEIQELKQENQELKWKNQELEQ

4H1828-bN = target: T27, 4H1828-bN
T27 chain: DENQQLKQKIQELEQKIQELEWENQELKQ

4H338-bN = target: T28, 4H338-bN
T28 chain: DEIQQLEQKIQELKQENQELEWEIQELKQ

4H1446-bN = target: T29, 4H1446-bN
T29 chain: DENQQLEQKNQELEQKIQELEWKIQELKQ

4H797-bN = target: T30, 4H797-bN
T30 chain: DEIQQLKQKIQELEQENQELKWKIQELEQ

4H687-bN = target: T31, 4H687-bN
T31 chain: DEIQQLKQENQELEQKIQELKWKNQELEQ

4H4001-bN = target: T32, 4H4001-bN
T32 chain: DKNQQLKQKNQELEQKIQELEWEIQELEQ

4H1257-bN = target: T33, 4H1257-bN
T33 chain: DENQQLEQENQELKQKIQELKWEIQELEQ

4H3112-bN = target: T34, 4H3112-bN
T34 chain: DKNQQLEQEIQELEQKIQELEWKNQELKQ

4H2729-bN = target: T35, 4H2729-bN
T35 chain: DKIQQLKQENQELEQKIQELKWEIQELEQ

4H72-bN = target: T36, 4H72-bN
T36 chain: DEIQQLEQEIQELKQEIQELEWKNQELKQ

4H908-bN = target: T37, 4H908-bN
T37 chain: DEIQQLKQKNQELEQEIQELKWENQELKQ

4H3185-bN = target: T38, 4H3185-bN
T38 chain: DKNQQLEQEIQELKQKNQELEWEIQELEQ

4H454-bN = target: T39, 4H454-bN
T39 chain: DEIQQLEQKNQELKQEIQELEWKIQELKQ

4H883-bN = target: T40, 4H883-bN
T40 chain: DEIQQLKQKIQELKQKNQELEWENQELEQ

4H2618-bN = target: T41, 4H2618-bN
T41 chain: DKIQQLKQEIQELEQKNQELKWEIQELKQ

4H3855-bN = target: T42, 4H3855-bN
T42 chain: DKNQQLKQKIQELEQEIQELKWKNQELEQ

4H2576-bN = target: T43, 4H2576-bN
T43 chain: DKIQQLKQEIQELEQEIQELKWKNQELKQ

4H967-bN = target: T44, 4H967-bN
T44 chain: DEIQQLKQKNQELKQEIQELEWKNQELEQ

4H2667-bN = target: T45, 4H2667-bN
T45 chain: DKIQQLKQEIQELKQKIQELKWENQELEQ

4H717-bN = target: T46, 4H717-bN
T46 chain: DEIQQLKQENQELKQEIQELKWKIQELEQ

4H331-bN = target: T47, 4H331-bN
T47 chain: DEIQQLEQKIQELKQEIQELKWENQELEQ

4H3354-bN = target: T48, 4H3354-bN
T48 chain: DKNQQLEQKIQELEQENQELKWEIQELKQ

4H568-bN = target: T49, 4H568-bN
T49 chain: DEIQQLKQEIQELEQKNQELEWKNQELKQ

4H2442-bN = target: T50, 4H2442-bN
T50 chain: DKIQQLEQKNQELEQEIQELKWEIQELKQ

4H754-bN = target: T51, 4H754-bN
T51 chain: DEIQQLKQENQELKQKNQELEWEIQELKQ

P3A-bN = target: T52, P3A-bN
T52 chain: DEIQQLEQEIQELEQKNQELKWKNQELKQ

4H3782-bN = target: T53, 4H3782-bN
T53 chain: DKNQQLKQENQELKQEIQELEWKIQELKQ

4H1845-bN = target: T54, 4H1845-bN
T54 chain: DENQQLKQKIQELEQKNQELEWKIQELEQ

4H3427-bN = target: T55, 4H3427-bN
T55 chain: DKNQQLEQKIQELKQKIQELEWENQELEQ

B1: 4H166-bN (peptide)
chain: DEIQQLEQENQELEQKIQELEWKIQELKQ
4H235-bN
  interaction score: -0.365
4H2931-bN
  interaction score: -0.274
4H2518-bN
  interaction score: 1.34
4H730-bN
  interaction score: -0.71
4H264-bN
  interaction score: 0.717
4H2143-bN
  interaction score: 0.201
4H949-bN
  interaction score: -0.601
4H56-bN
  interaction score: -0.199
4H3381-bN
  interaction score: 0.0552
4H2760-bN
  interaction score: 0.225
4H2585-bN
  interaction score: -0.823
4H2859-bN
  interaction score: 0.54
4H796-bN
  interaction score: -1.95
4H3297-bN
  interaction score: 1.54
4H932-bN
  interaction score: -0.134
4H3041-bN
  interaction score: 1.6
4H2444-bN
  interaction score: 0.231
4H2233-bN
  interaction score: 0.155
4H2253-bN
  interaction score: -0.769
4H166-bN
  interaction score: 0.12
4H3364-bN
  interaction score: -0.154
4H349-bN
  interaction score: -0.759
4H2162-bN
  interaction score: 0.326

B2: 4H1257-bN (peptide)
chain: DENQQLEQENQELKQKIQELKWEIQELEQ
4H953-bN
  interaction score: -0.733
4H918-bN
  interaction score: -1.21
4H607-bN
  interaction score: -0.95
4H1828-bN
  interaction score: -0.561
4H338-bN
  interaction score: -0.857
4H1446-bN
  interaction score: -0.533
4H797-bN
  interaction score: -0.946
4H687-bN
  interaction score: -1.24
4H4001-bN
  interaction score: -1.89
4H1257-bN
  interaction score: -1.67
4H3112-bN
  interaction score: -0.702
4H2729-bN
  interaction score: -0.506
4H72-bN
  interaction score: -1.99
4H908-bN
  interaction score: -1.39
4H3185-bN
  interaction score: -1.45
4H454-bN
  interaction score: 0.889
4H883-bN
  interaction score: -1.31
4H2618-bN
  interaction score: -0.173
4H3855-bN
  interaction score: -0.77
4H2576-bN
  interaction score: -0.613
4H967-bN
  interaction score: -0.47
4H2667-bN
  interaction score: -1.35
4H717-bN
  interaction score: -1.05
4H331-bN
  interaction score: -1.48
4H3354-bN
  interaction score: -1.08
4H568-bN
  interaction score: -1.28
4H2442-bN
  interaction score: -1.13
4H754-bN
  interaction score: -1.46
P3A-bN
  interaction score: -1.36
4H3782-bN
  interaction score: 1.9
4H1845-bN
  interaction score: -0.503
4H3427-bN
  interaction score: -0.768
